Source: patent US5602009, “Dominant negative chimeras of the steroid/thyroid superfamily of receptors” (The Salk Institute for Biological Studies)

T1: retinoic acid receptor alpha (RARalpha) (UniProt P10276 P10276:1-462)
T1 sequence: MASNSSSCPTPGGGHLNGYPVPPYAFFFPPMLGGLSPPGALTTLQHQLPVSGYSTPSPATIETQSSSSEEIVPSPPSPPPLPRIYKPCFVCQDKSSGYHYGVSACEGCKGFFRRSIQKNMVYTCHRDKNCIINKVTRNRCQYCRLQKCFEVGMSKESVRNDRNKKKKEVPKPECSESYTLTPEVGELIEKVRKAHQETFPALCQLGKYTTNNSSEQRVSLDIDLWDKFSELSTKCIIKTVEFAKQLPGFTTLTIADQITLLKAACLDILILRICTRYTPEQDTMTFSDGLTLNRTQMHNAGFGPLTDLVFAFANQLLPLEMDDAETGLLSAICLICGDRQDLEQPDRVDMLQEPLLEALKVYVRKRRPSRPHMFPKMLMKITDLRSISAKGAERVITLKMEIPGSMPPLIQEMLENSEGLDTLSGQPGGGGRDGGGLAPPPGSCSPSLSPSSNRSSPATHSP

T2: thyroid hormone receptor alpha (rTRalpha) (Rattus norvegicus, UniProt P63059-2 P63059-2:1-410)
T2 sequence: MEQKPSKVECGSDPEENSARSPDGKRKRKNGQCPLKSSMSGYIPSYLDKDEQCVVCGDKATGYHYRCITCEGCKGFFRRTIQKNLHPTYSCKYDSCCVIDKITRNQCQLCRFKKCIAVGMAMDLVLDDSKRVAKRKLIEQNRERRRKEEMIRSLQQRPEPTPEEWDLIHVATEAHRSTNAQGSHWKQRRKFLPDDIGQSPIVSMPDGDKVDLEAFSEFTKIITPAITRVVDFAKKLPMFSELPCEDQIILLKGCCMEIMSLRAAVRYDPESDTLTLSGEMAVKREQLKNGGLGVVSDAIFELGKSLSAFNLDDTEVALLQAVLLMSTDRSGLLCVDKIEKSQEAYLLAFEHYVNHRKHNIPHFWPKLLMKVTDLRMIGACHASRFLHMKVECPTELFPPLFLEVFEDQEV

B1: TREp palindromic thyroid response element (dsDNA)
DNA 1: TCAGGTCATGACCTGA
DNA 2: TCAGGTCATGACCTGA

Experiments:
[1] = test system: glucocorticoid receptor (hGR) (Homo sapiens); experiment: cell_activity; settings: dexamethasone 1e-7 M, MTV-Luc in CV-1
[2] = molecular target: T1, retinoic acid receptor alpha (RARalpha); experiment: cell_activity; 100 nM RA, delta-MTV-TREp-CAT in CV-1
[3] = molecular target: T2, thyroid hormone receptor alpha …; experiment: cell_activity; T3 100 nM stimulation of tk-TREp-CAT in CV-1; 80% decrease of basal activity without hormone; settings: tags: RSV expression vector RS-rTRalpha in CV-1 cells

Molecule	activity [1] [fold]	activity [2] [fold]	activity [3] [fold]
mouse mammary tumor virus (MTV) promoter	3000		
B1		25	20
